# B1: Adenomatous polyposis coli protein-related protein 1 (Caenorhabditis elegans), Q21227-1 (parent)
# chain: MSSSSSDENETTIHRTGSNTGGSGIYSQPRAGSSKRTSNVRHDVSDVDDEEEHYARFREDTAIEVDDAITVLLSSLHFEHKRDIVPTDEDDNKLRELHEKIFALITSESDVNRKRRLKKALPASNCVREQVYYLRRKPSTPPASYYHRLNAALHTIVKESFGEEYRKVATVLGLVEALAEVLILEVHTFGINETNPGEHRNIRKLIANALTNLTYGQIHSKRRLCSYDGFIRCVVRIVIESPNITQVYAGLIRNLSWNADSGMSEALQPTVHALSIAAVHAHTHRFDVTATLSALWNLAGHSVENKRTICDTPNCLKVLASLLSPDARFTSLVDSATGILKYVSQYLANTSTHLELRSLLITRMLTLLKSASFTCVTNTLGAIANLIVKDPHMQQMIRQDMAAVQQLNVLRNSNRDDIRTAVKSVLNTLNQPCSHRYGDMSHSVGGGATGMQMLSEPQLQMQTSHHAYHGTASPRLLSLRATRASPGKYIQPQAQQQLIQTPQVDQRSSSLPRHFAVQRNGFVMAQSYNQQMDQHQQQQMIYQLQQQQQIMFQTEDQAQMEHHQQIMYLQQQQQQFHQIQQQQQMQKAQEADPVPPTDDDLDIPTSTVMGTRSNSERSLGSMNPGSVMTNWNSSLDTAANSSRALSPVSYNDIPASPTMCAQVFNLPKSTESEHHQLTSQQQNTTHYSSGSANTMTRSDGATTVPMDNIITPTYAILNPILVHEQTPNGTVPRKTSEELDSPDDVLPGPSLEEEEGDYAIIGGAAQKTDDELLTRSIQSEMPTSSSTPKMKVSPRLNGFFSPTQKTTSSPAWSHPDTSPIPKSSSHRTQPNRRQDASDADRLLMESIMSEMPKSRIISPRLAGTQQYLEPEPERRSHSKNEEADRRDAFTASHEPSDHNGIDVARGSDWSPQQQLHRMESLESQASSEDSFGLTAEEPNSSTSGAAANTMRFDDEIDASLPMDCVDDDDYDYTYDHFEDYEDEEDPDATQFDDGVDAQLTIDCSMISSGSGSSQRNETTTTSRDSKALATSTPKGSASSLPGVRQATRVSTNGKSRLPVPKTNGSLVDKNPKPIIASRRPRLPPKPTLLKDKHYPEEDSIENQTRDDTIYVNAPVVEAEQERIYMNALKQQKNIEQSPSIGNGSPIAKSAIVTPYNYQKPPFTGRNNGEMSNEKSVTPNPKQMLVTIV
# partner: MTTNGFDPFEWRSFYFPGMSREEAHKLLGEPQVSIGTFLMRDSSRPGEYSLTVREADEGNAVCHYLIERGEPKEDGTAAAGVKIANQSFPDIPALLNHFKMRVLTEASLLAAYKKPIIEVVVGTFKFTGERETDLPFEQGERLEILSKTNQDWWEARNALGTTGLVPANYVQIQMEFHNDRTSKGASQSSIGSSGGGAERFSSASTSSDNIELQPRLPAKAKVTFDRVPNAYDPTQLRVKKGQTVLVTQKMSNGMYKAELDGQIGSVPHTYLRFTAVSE
# Variants of: B1
# Settings: with ced2_caeel ced-2, Q9NHC3
row,effect of a mutation on the interaction,Variant
1,decreasing interaction,Y489A

# Source: IntAct's records for PubMed 20126385
